Where two headings read alike, the source gives them in different places. Where no end group is shown, it is not given here. [ ]: non-standard residue; d: D form. The star is where a group is joined. d2Nal = N[C@H](Cc1ccc2ccccc2c1)C(=O)O; Palmitoyl = CCCCCCCCCCCCCCCC(=O)*; Octanoyl = CCCCCCCC(=O)*; Dap = NC[C@H](N)C(=O)O
Assays:
ghrelin-R (GHS-R 1a) [1] = biological target: T1, ghrelin-R (GHS-R 1a) (Rattus norvegicus, UniProt O08725); assay: Food intake after administration of peptide (FIG. 10); type: in vivo
T1 construct: from tissue; host or cells: whole animal (hypothalamus)
T1 sequence (O08725 whole entry): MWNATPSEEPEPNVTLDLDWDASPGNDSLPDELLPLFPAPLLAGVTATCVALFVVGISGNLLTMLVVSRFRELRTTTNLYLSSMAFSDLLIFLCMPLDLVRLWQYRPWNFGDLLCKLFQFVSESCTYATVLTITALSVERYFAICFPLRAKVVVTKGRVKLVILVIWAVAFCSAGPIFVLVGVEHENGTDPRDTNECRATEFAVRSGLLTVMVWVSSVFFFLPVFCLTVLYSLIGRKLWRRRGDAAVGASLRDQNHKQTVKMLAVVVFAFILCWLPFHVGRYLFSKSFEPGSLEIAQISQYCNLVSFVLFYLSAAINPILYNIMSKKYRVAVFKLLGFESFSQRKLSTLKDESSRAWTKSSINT

ghrelin-R (GHS-R 1a) [2] = biological target: T1, ghrelin-R (GHS-R 1a); assay: Plasma growth hormone / GH secretion after administration of peptide (FIG. 11); type: in vivo
[3] = biological target: T2, ghrelin O-acyltransferase (GOAT) (Mus musculus, UniProt P0C7A3); conditions: Yang et al. 2008; cited from earlier work
T2 sequence (P0C7A3 1-435): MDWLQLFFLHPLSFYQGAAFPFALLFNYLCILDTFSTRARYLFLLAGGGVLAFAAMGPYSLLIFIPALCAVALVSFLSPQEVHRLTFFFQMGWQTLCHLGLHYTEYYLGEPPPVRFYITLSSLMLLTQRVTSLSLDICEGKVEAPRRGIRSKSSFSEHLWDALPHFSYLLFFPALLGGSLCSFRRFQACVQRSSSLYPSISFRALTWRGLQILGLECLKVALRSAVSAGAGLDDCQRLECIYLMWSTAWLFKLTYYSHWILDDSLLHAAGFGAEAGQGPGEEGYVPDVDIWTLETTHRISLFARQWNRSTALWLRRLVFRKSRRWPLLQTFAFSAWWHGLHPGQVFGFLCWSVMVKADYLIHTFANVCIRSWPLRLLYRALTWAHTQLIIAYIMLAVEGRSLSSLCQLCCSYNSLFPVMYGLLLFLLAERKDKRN

GHS-R 1a [4] = biological target: T3, GHS-R 1a (Rattus norvegicus, UniProt O08725); assay: Spontaneous and ghrelin-induced food intake in rats after i.c.v. GHS-A; type: in vivo
T3 construct: free-moving rats were i.c.v. injected with either normal saline or GHS-A (5 μg); from tissue; host or cells: whole animal (rat; hypothalamus/pituitary)
T3 sequence (O08725 whole entry): as the sequence (O08725 whole entry) above
Procedure: (§1) Adult male Sprague Dawley rats (225-260 g) were purchased from Charles River Canada (St. Constant, Canada) and individually housed on a 12-h light, 12-h dark cycle (lights on, 0600-1800 h) in a temperature (22±1° C.)- and humidity-controlled room. Purina rat chow (Ralston Purina Co., St. Louis, Mo.) and tap water were available ad libitum.
(§2) Chronic intracerebroventricular (i.c.v.) and intracardiac venous cannulas were implanted under sodium pentobarbital (50 mg/kg, i.p.) anesthesia using previously described techniques in (2) and (11). The placement of the icy cannulae was verified by both a positive drinking response to i.c.v. carbachol (100 ng/10 μl) injection on the day after surgery and methylene blue dye at the time of death. After surgery, the rats were placed directly in isolation test chambers with food and H2O freely available until body weight returned to preoperative levels (usually within 5-7 d). During this time the rats were handled daily to minimize any stress associated with handling on the day of the experiment. On the test day, food was removed 1.5 h before the start of sampling and was returned at the end.
The effects of the GHS-A on both spontaneous and ghrelin-induced food intake and body weight gain were investigated. For the spontaneous experiments, the rats were fasted overnight (1600-1100 h next morning) and were i.c.v.-injected with either normal saline or GHS-A (5 μg) at 1100 h. Food intake was monitored on an hourly basis for 5 h after the initial injection (until 1600 h) and subsequently overnight (1600-0900 h next morning). A measured amount of rat chow pellets was placed in the cage every hour. Spillage was collected by placement of a diaper under the rat cages, and total food consumed for each period was calculated by subtracting uneaten food plus spillage from total given. Body weights were recorded daily at 0900 h. The latency to the onset of the first meal after the injection and the duration of that meal were also monitored.
Food intake was monitored on an hourly basis as described above. In this experiment, food was removed 1.5 h before the start of the test.

[5] = biological target: Ghrelin/GHRP/GHS Receptor (Rattus norvegicus, UniProt O08725); assay: In vivo GH release in rat (serum GH by RIA after i.v. peptide); conditions: Table 2
Ghrelin/GHRP/GHS Receptor, sequence (O08725 whole entry): as the sequence (O08725 whole entry) above

GHS-R 1a [6] = biological target: T3, GHS-R 1a; assay: Plasma GH (ghrelin-induced, GHRH-induced, spontaneous pulsatile) in free-moving adult male rats after GHS-A; type: in vivo; conditions: for plasma GH response to ghrelin, central: 5 μg GHS-A i.c.v. 15 min before 500 ng ghrelin i.c.v.
Procedure: as §1, §2
The efficacy of GHS-A to antagonize ghrelin's stimulatory action on GH at both central and peripheral sites was examined. […] (500 ng). Both the human ghrelin peptide (provided by Dr. K. Chang, Phoenix Pharmaceuticals, Inc., Belmont, Calif.) and the GHS-A were diluted in normal saline just before use. Blood samples (0.35 ml) were withdrawn every 15 min over a 6-h sampling period (1000-1600 h) from all animals. […] All blood samples were immediately centrifuged, and plasma was separated and stored at −20° C. for subsequent assay of GH. To avoid hemodynamic disturbance, the red blood cells were resuspended in normal saline and returned to the animal after removal of the next blood sample.
Blood samples were withdrawn from 1000-1600 h, as described above.
These time points were chosen because they correspond closely to the time of onset of the spontaneous GH secretory episodes, as previously documented in our laboratory (2, 4). Blood samples were withdrawn from 1000-1600 h, as described above; however, no blood sample was withdrawn 5 min after the injections.

[7] = listed as Gly-Met-Ala-Gly-Ser-(Dap-Oct)-Phe-Leu-Ser-Pro-Glu-His-NH2
[8] = listed as Gly-Met-Ala-Gly-Ser-(Dap-Palmityl)-Phe-Leu-Ser-Pro-Glu-His-NH2
[9] = overnight-fasted animals, 5 μg GHS-A i.c.v.
[10] = 5 μg GHS-A i.c.v., spontaneous GH pulses

## Gly-Met-Ala-Gly-Ser-(Dap-Oct)-Phe-Leu-Ser-Pro-Glu-His-NH2 (GMAGS[Dap](Octanoyl)FLSPEH-NH2; N-terminus assumed; SMILES CCCCCCCC(=O)NC[C@H](NC(=O)[C@H](CO)NC(=O)CNC(=O)[C@H](C)NC(=O)[C@H](CCSC)NC(=O)CN)C(=O)N[C@@H](Cc1ccccc1)C(=O)N[C@@H](CC(C)C)C(=O)N[C@@H](CO)C(=O)N1CCC[C@H]1C(=O)N[C@@H](CCC(=O)O)C(=O)N[C@@H](Cc1c[nH]cn1)C(N)=O) [peptide #3]
ghrelin-R (GHS-R 1a) [1]
  food intake: inhibited food intake
ghrelin-R (GHS-R 1a) [1]; [7]
  food intake: reduced
ghrelin-R (GHS-R 1a) [2]
  growth hormone secretion / plasma growth hormone levels: inhibited growth hormone secretion
ghrelin-R (GHS-R 1a) [2]; [7]
  growth hormone secretion / plasma growth hormone levels: inhibited

## Gly-Met-Ala-Gly-Ser-(Dap-Palmityl)-Phe-Leu-Ser-Pro-Glu-His-NH2 (GMAGS[Dap](Palmitoyl)FLSPEH-NH2; N-terminus assumed; SMILES CCCCCCCCCCCCCCCC(=O)NC[C@H](NC(=O)[C@H](CO)NC(=O)CNC(=O)[C@H](C)NC(=O)[C@H](CCSC)NC(=O)CN)C(=O)N[C@@H](Cc1ccccc1)C(=O)N[C@@H](CC(C)C)C(=O)N[C@@H](CO)C(=O)N1CCC[C@H]1C(=O)N[C@@H](CCC(=O)O)C(=O)N[C@@H](Cc1c[nH]cn1)C(N)=O) [peptide #6]
ghrelin-R (GHS-R 1a) [1]; [8]
  food intake: did not inhibit GH secretion or decreased food intake
ghrelin-R (GHS-R 1a) [2]; [8]
  growth hormone secretion / plasma growth hormone levels: did not inhibit

## Gly-Ser-Ser(Oct)-Phe-Leu (GSS(Octanoyl)FL) [octanoylated ghrelin pentapeptide]
[3]
  GOAT activity: inhibited
  potency enhancement when octanoylated serine-3 replaced by octanoylated diaminopropionic acid: 45 fold

## His-DβNal-DLys-Trp-DPhe-Lys-NH2 (H[d2Nal][dK]W[dF]K-NH2; N-terminus assumed; SMILES NCCCC[C@H](NC(=O)[C@@H](Cc1ccccc1)NC(=O)[C@H](Cc1c[nH]c2ccccc12)NC(=O)[C@@H](CCCCN)NC(=O)[C@@H](Cc1ccc2ccccc2c1)NC(=O)[C@@H](N)Cc1c[nH]cn1)C(N)=O) [GHRP derivative ghrelin receptor antagonist; GHS-A of the rat studies per b295]
GHS-R 1a [4]; 5 μg GHS-A i.c.v. before ghrelin 500 ng i.c.v., up to 5 h after injection
  cumulative food intake, ghrelin-stimulated: significantly suppressed
GHS-R 1a [4]; 5 μg i.c.v. before ghrelin 500 ng i.c.v.
  ghrelin-stimulated food intake in the first hour after injections: significantly inhibited
GHS-R 1a [4]; [9]
  cumulative food intake beyond the first hour after injection: not inhibited
  spontaneous food intake in the first hour after injection: significantly inhibited
[5]; peptide antagonist 30 μg i.v. + stimulator DAla-DβNal-Ala-Trp-DPhe-Lys-NH2 0.3 μg
  Stimulated GH release from rat: 733 ± 85 ng/mL
[5]; peptide antagonist 100 μg i.v. + stimulator DAla-DβNal-Ala-Trp-DPhe-Lys-NH2 1 μg
  Stimulated GH release from rat: 818 ± 269 ng/mL
GHS-R 1a [6]; 5 μg GHS-A i.c.v.
  1-h GH AUC of the spontaneous GH secretory episode at 1100 h: significantly reduced
  1-h GH AUC of the spontaneous GH secretory episode at 1400 h: significantly reduced
  overall 6-h GH AUC: significantly reduced
GHS-R 1a [6]; listed as GHS-A
  plasma GH response to ghrelin, central: abolished
GHS-R 1a [6]; listed as HisDβNalDLysTrpDPheLysNH2
  plasma GH response to ghrelin, central: virtually obliterated
GHS-R 1a [6]; 5 μg GHS-A i.c.v. 15 min before expected GH secretory bursts
  amplitude of the spontaneous GH pulses: severely attenuated
GHS-R 1a [6]; 5 μg GHS-A i.c.v., ghrelin 500 ng i.c.v., vs normal saline controls
  reduction of GH AUC following i.c.v. ghrelin: 15 fold
GHS-R 1a [6]; [10]
  GH interpeak interval (cluster analysis): no significant effect
  GH nadir (cluster analysis): no significant effect
  GH peak frequency (cluster analysis): no significant effect
  GH peak height (cluster analysis): significant suppression
GHS-R 1a [6]; 250 μg GHS-A i.v. 15 min before 5 μg ghrelin i.v.
  plasma GH response to ghrelin, peripheral: strongly blocked
GHS-R 1a [6]; 250 μg GHS-A i.v., ghrelin 5 μg i.v., vs normal saline controls
  reduction of GH AUC following i.v. ghrelin: 5 fold
GHS-R 1a [6]; GHRH 5 μg i.v.
  GH response to GHRH: did not significantly reduce

Source: patent publication US9724381B2 (THE ADMINISTRATORS OF THE TULANE EDUCATIONAL FUND, priority 2009, dated 2017)
